Results published in article PMC10683481.

Target: GST-PLIED-M1 (E. coli) (UniProt P0ABQ4)

**Q.** For “Recombinant human MDM2 (17-125) (from UniProt Q00987 17-125) (domain or fragment)”, which acetylation yield of MDM2 K51 (LC-MS/MS) with MDM2 (1.4 μM), PLIED-M1 (4 μM), TMP-BAHA 1 (10 μM) and acetyl donor 2 (100 μM), 37 °C, 5 h is on record?
**A.** 70%
